Measured values taken from paper PMC4832424.

Tests used:
[1] = biological target: GST-TOG1/2; assay: pull-down
[2] = biological target: wild-type TUBB3 (recombinant α/β-tubulin heterodimer with human β-tubulin isotype III) (Homo sapiens) (UniProt P68363); assay: TIRF microscopy single-filament polymerization assay
[3] = biological target: TUBB3-D417H (recombinant α/β-tubulin heterodimer with human TUBB3 D417H) (Homo sapiens) (UniProt P68363); assay: as above

Kd [1] [nM]	apparent association rate constant k+ of tubulin subunits at plus-ends [2] [M⁻¹ s⁻¹]	apparent dissociation rate constant k- of tubulin subunits at plus-ends [2] [s⁻¹]	apparent association rate constant k+ of tubulin subunits at minus-ends [3] [M⁻¹ s⁻¹]	apparent dissociation rate constant k- of tubulin subunits at minus-ends [3] [s⁻¹]	Substance
400	1.7e+06	1.1	–	–	wild-type TUBB3 (recombinant α/β-tubulin heterodimer with human β-tubulin isotype III) (from UniProt P68363-1 1-437; Q13509-1 1-426) (complex)
1200	–	–	1.4e+06	1.2	TUBB3-D417H (recombinant α/β-tubulin heterodimer with human TUBB3 D417H) (from UniProt P68363-1 1-437; Q13509-1 1-426) (complex)
